From US20240425588A1 (published 2024)

T1: recombinant human TIGIT-His (SinoBiological) (UniProt Q495A1 22-141)
T1 chain: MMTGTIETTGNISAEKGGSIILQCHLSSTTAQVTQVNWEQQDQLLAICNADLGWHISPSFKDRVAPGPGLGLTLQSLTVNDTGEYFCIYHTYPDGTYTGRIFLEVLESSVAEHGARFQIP


Molecular target: Cynomolgus TIGIT
Assay: Biacore

Binder	Kd
50C2 Original (antibody, V domains shown) VH: QVQLKESGPGLVAPSQSLSITCTVSGFSLTNYNINWIRQPPGKGLEWLGVIWTGGGTNYNSAFMSRLSISKDNSKSQVFLKMNRLQTDDTAIYYCVREAYFSNYGFYFDYWGQGTTLTVSS VL: EIVLTQSPTTMAASPGEKITITCSASSSISSNYLHWYQQKPGFSPKLLIYRTSNLASGVPARFSGSGSGTSYSLTIGTMEAEDVATYYCQQGSSIPRTFGGGTKLEIK	45.9 nM
32B10 Affinity Matured (HAM) (antibody, V domains shown) VH: EVQLLESGGGLVQPGGSLRLSCAASGFTFSNYVMSWVRQAPGKGLEWVSTITSGGTYTYYPDSVKGRFTISRDNSKNTLYLQMNSLRAEDTAVYYCTRWLLSLYAMDYWGQGTTVTVSS VL: DIQMTQSPSSLSASVGDRVTITCRASQDISNFLNWYQQKPGKAVKLLLYYTSRLHSGVPSRFSGSGSGTDYTLTISSLQPEDFATYFCQQFKTYPYTFGGGTKVEIK	6.73 nM

Results, then the binder that gave them:

Kd	Binder
26 nM	32B10 Humanized (Hu) (antibody, V domains shown) VH: EVQLLESGGGLVQPGGSLRLSCAASGFTFSNYVMSWVRQAPGKGLEWVSTITSGGTYTYYPDSVKGRFTISRDNSKNTLYLQMNSLRAEDTAVYYCTRWLLSLYAMDYWGQGTTVTVSS VL: DIQMTQSPSSLSASVGDRVTITCRASQDISNFLNWYQQKPGKAVKLLLYYTSRLHSGVPSRFSGSGSGTDYTLTISSLQPEDFATYFCQQGKTYPYTFGGGTKVEIK
19.2 nM	50C2 Affinity Matured (HAM) (antibody, V domains shown) VH: QVQLQESGPGLVKPSETLSLTCTVSGFSLTNYNINWIRQPPGKGLEWIGVIWNGGGTNYNSAFMSRVTISKDTSKNQVSLKLSSVTAADTAVYYCVREAYFSNYGFYFDYWGQGTLVTVSS VL: DIQMTQSPSSLSASVGDRVTITCSASSSISSNYLHWYQQKPGKAPKLLIYRTSNLASGVPSRFSGSGSGTDFTLTISSLQPEDFATYYCQQGSSIPRTFGGGTKVEIK
8.7 nM	32B10 Original (antibody, V domains shown) VH: EVQLVESGGVLVKPGGSLKLSCAASGFTFSNYVMSWVRQTPEKRLEWVATITSGGTYTYYPDSVKGRFTISRDNAKNILYLQMSSLRSEDTALYYCTRWLLSLYAMDYWGQGTSVTVSS VL: DIQMTQTTSSLSASLGDRVTITCRASQDISNFLNWYQQKPDGTVKLLIYYTSRLHSGVPSRFSGSGSGTDYSLTISNLEQEDIATYFCQQGKTYPYTFGGGTKVEIK

Molecular target: T1, recombinant human TIGIT-His …
Assay: Biacore; 25°C

Binder	Kd
45.32A8.G6 (antibody, V domains shown) VH: QVQLKESGPGLVAPSHSLSITCTVSGFSLTNYNINWIRQPPGKGLEWLGIIWTGGGTNYNSAFMSTLSINKDNSKSQVFLKMNRMQTDDTTIYYCVRETYFNNYGFYFDYWGQSTTLTVSS VL: EIVLTQSPTTMAASPGEKITITCSASSSISSNYLHWYQQKPGFSPKLLIYRTSNLASGVPARFSGSGSGTSYSLTIGTMEAEDVATYYCQQGSSIPRTFGGGTKLEIK	0.428 nM
45.50C2.A6 (antibody, V domains shown) VH: QVQLKESGPGLVAPSQSLSITCTVSGFSLTNYNINWIRQPPGKGLEWLGVIWTGGGTNYNSAFMSRLSISKDNSKSQVFLKMNRLQTDDTAIYYCVREAYFSNYGFYFDYWGQGTTLTVSS VL: EIVLTQSPTTMAASPGEKITITCSASSSISSNYLHWYQQKPGFSPKLLIYRTSNLASGVPARFSGSGSGTSYSLTIGTMEAEDVATYYCQQGSSIPRTFGGGTKLEIK	0.386 nM
45.3D7.F7 (antibody, V domains shown) VH: QVQLQQSGPELVKPGASVKISCKASGYGFSGYWMNWVKQGPGKGLEWIGRIFPGDGDTDYNGKLKDKATLTAYKSSSTAYLQLSSLTSEDSAVYFCARWLGGFTSWGQGTLVTVSA VL: QIVLSQSPAILSASPGEKVTMTCRASASVSYMHWYQQKPGSSPKPWIYATSNLASGVPARFSGSGSGTSYSLTISRVEAEDAATYYCQQWSSDPPTFGAGTKLELK	4.47 nM
45.49H11.H11 (antibody, V domains shown) VH: EVQLQQSGPELVKPGASVKMSCKTSKYTFTNYVLHWVKQKPGQGLEWIGYINPYNDGTKYNEKFKGKATLTSDKSSSTAYMELSSLTSEDSAVYYCARSYQSNYGFGYWGQGTLVTVSA VL: DIVMTQSHKFMSTSVGDRVSITCKASQHVSTAVVWYRQIPGQSPKILINSASYRYTGVPDRFTGSGSGTDFTFTISSVQAEDLAVYYCQQHYSIPWTFGGGTKLEIK	1.04 nM
45.75D4.D3.D9 (antibody, V domains shown) VH: EVQLQQSGPELVKPGASMKMSCKASGYKFTSYVMHWVKQKPGQGLEWIGYIDPYNDGSKYNEKFKGKATLTSDKSSSIAYMELSSLTSEDSAVFYCARGGSRGWYFDVWGAGTTVTVSS VL: DIQMTQSPASLSASVGETVTFTCRTNENIYSYLTWYQQKQGKSPQVLVYNAKTLAEGVPSRFSGSGSGTQFSLKINSLQPEDFGSYFCQHHFGNPLTFGAGTKLELK	1.09 nM
45.87B8.H2.H5 (antibody, V domains shown) VH: DVQLQESGPGLVKPSQSLSLTCTVTGYSITSAYDWHWIRLFPGHILEWMGYISYSGNTIYNPSLKSRISITHDTSKNHFFLKLNSVTTEDTATYYCARGSFWYFDVWGAGTTVTVSS VL: DIQMTQSPASLSASVGETVTITCRVSEHIYNYLAWYQQKQGKSPQLLVYNAKTLAEGVPSRFSGSGSGTQFSLKINSLQPEDFGTYYCQHNYGNPLTFGAGTKVELK	4.75 nM
45.62B12.G5 (antibody, V domains shown) VH: DVQLQESGPGLVKPSQSLSLTCTVTGYSITSAYDWHWIRHFPGNILEWMGYIRNSGSTNYNPLLKSRISITHDTSQNHFSLKLNSVTTEDTATYYCARGLFWYFDVWGAGTTVTVSS VL: DIQMTQSPASLSASVGETVTITCRASENIYNYLTWYQQKQGKSPQLLVYNAKTLAEGVPSRFSGSGSGTQFSLKINSLQPEDFGSYYCQHHYGNPLTFGAGTKLELK	0.862 nM

The next lines start with the values.

Kd	Binder
1.23 nM	45.102D4.C12.C6 (antibody, V domains shown) VH: EVQLQQSGPELVKPGASVKMSCKASGYTFTTYVIHWVKQKPGQGLEWIGYINPYNDGTKYNEKFKVKATLTSDKSSSTAYMELSSLTSEDSAVYYCARSFYVNYGFAYWGQGTLVTVSA VL: DIVMTQAHKFMSTSVGDRVSITSKASQDVRTAVAWYQQKPGQSPKLLIYSASYRYTGVPDRFTGSGSGADFTFTISSVQAEDLAVYYCQQHYITPWTFGGGTKLEIK
0.784 nM	45.86C5.C3 (antibody, V domains shown) VH: DVQLQESGPGLVKPSQSLSLTCTVTGYSITSGYDWHWIRHFPGNILEWMGYISDSGNTIYSPSLKSRISITHDTSKNHFFLKLNSVTSEDTATYYCARGSFWYFDVWGAGTTVTVSS VL: DIQMTQSPASLSASVGETVTITCRVSENIYSYLAWYQQKQGKSPQLLVYNTKTLAEGVPSRFSGSGSGTQFSLKINSLQPEDFGSYYCQHHYGNPLTFGAGTKLELK
0.53 nM	45.32B10.A4 (antibody, V domains shown) VH: EVQLVESGGVLVKPGGSLKLSCAASGFTFSNYVMSWVRQTPEKRLEWVATITSGGTYTYYPDSVKGRFTISRDNAKNILYLQMSSLRSEDTALYYCTRWLLSLYAMDYWGQGTSVTVSS VL: DIQMTQTTSSLSASLGDRVTITCRASQDISNFLNWYQQKPDGTVKLLIYYTSRLHSGVPSRFSGSGSGTDYSLTISNLEQEDIATYFCQQGKTYPYTFGGGTKVEIK
12 nM	45.56F7.A1 (antibody, V domains shown) VH: EVQLVESGGALVKPGGSLKLSCAASGFTFSNYAMSWVRQTPEKRLEWVATISSGGSYTYYPDSVKGRFTISRDNAKNTLYLQMSSLRSEDTALYYCARWLLSLYAMDYWGQGTSVTVSS VL: DFQMTQTTSSLSASLGDRVTISCRSSQDISNYLNWYQQKPDGTVKLLIYRTSRLHSGVPSRFSGSGSGTDYSLTISNLEREDIATYFCQQGKTPPYTFGGGTKLEIK
0.776 nM	45.31G8.E9 (antibody, V domains shown) VH: QIQLQQSGAELVRPGTSVKMSCKAVGYTFTNYWINWVKQRPGHGFEWIGDIYPGGYYINYNEKFKGKATLTADTSSSTAYMQLSSLTSEDSAIYYCARGYGSYAMDYWGQGTSVTVSS VL: DIVMTQSQKFMSTSVGDRVSITCKASQNVRTDVVWYQQKPGQSPKALIFLASNRHTGVPDRFTGSGSGTDFTLTISNVQSEDLADYFCLQHWNYPYTFGGGTKLEIK

Molecular target: T1, recombinant human TIGIT-His …
Assay: Biacore

Binder	Kd
45.50C2.A6 (antibody, V domains shown) VH: QVQLKESGPGLVAPSQSLSITCTVSGFSLTNYNINWIRQPPGKGLEWLGVIWTGGGTNYNSAFMSRLSISKDNSKSQVFLKMNRLQTDDTAIYYCVREAYFSNYGFYFDYWGQGTTLTVSS VL: EIVLTQSPTTMAASPGEKITITCSASSSISSNYLHWYQQKPGFSPKLLIYRTSNLASGVPARFSGSGSGTSYSLTIGTMEAEDVATYYCQQGSSIPRTFGGGTKLEIK	0.386 nM
hu32B10 HAM (45.32B10.A4) (antibody, V domains shown) VH: EVQLLESGGGLVQPGGSLRLSCAASGFTFSNYVMSWVRQAPGKGLEWVSTITSGGTYTYYPDSVKGRFTISRDNSKNTLYLQMNSLRAEDTAVYYCTRWLLSLYAMDYWGQGTTVTVSS VL: DIQMTQSPSSLSASVGDRVTITCRASQDISNFLNWYQQKPGKAVKLLLYYTSRLHSGVPSRFSGSGSGTDYTLTISSLQPEDFATYFCQQFKTYPYTFGGGTKVEIK	0.271 nM

Other lines, results leading:

Kd	Binder
1.61 nM	hu32B10 (45.32B10.A4) (antibody, V domains shown) VH: EVQLLESGGGLVQPGGSLRLSCAASGFTFSNYVMSWVRQAPGKGLEWVSTITSGGTYTYYPDSVKGRFTISRDNSKNTLYLQMNSLRAEDTAVYYCTRWLLSLYAMDYWGQGTTVTVSS VL: DIQMTQSPSSLSASVGDRVTITCRASQDISNFLNWYQQKPGKAVKLLLYYTSRLHSGVPSRFSGSGSGTDYTLTISSLQPEDFATYFCQQGKTYPYTFGGGTKVEIK
4.17 nM	hu50C2 HAM (45.50C2.A6) (antibody, V domains shown) VH: QVQLQESGPGLVKPSETLSLTCTVSGFSLTNYNINWIRQPPGKGLEWIGVIWNGGGTNYNSAFMSRVTISKDTSKNQVSLKLSSVTAADTAVYYCVREAYFSNYGFYFDYWGQGTLVTVSS VL: DIQMTQSPSSLSASVGDRVTITCSASSSISSNYLHWYQQKPGKAPKLLIYRTSNLASGVPSRFSGSGSGTDFTLTISSLQPEDFATYYCQQGSSIPRTFGGGTKVEIK
1.46 nM	hu50C2 (45.50C2.A6) (antibody, V domains shown) VH: QVQLQESGPGLVKPSETLSLTCTVSGFSLTNYNINWIRQPPGKGLEWIGVIWTGGGTNYNSAFMSRVTISKDTSKNQVSLKLSSVTAADTAVYYCVREAYFSNYGFYFDYWGQGTLVTVSS VL: DIQMTQSPSSLSASVGDRVTITCSASSSISSNYLHWYQQKPGKAPKLLIYRTSNLASGVPSRFSGSGSGTDFTLTISSLQPEDFATYYCQQGSSIPRTFGGGTKVEIK
0.53 nM	45.32B10.A4 (antibody, V domains shown) VH: EVQLVESGGVLVKPGGSLKLSCAASGFTFSNYVMSWVRQTPEKRLEWVATITSGGTYTYYPDSVKGRFTISRDNAKNILYLQMSSLRSEDTALYYCTRWLLSLYAMDYWGQGTSVTVSS VL: DIQMTQTTSSLSASLGDRVTITCRASQDISNFLNWYQQKPDGTVKLLIYYTSRLHSGVPSRFSGSGSGTDYSLTISNLEQEDIATYFCQQGKTYPYTFGGGTKVEIK
